Laboratory results: PMC5664961 (Biochemical Journal, 2017)
Values belong to the binder of their own block, whether it stands above or below them.

Columns and labels:
[1] = biological target: T1, human Cul3 N-terminal domain (NTD, residues M1-L388) with the engineered mutations I342R and L346D (human, UniProt Q13618 1-388, I342R | L346D); assay: ITC; KCTD5 titrated into Cul3 in the cell; 25°C; 50 mM HEPES pH 7.5, 150 mM NaCl, 1 mM TCEP, 5% glycerol; single-binding site model; settings: both partners purified
T1 construct: Cullin-3, human, UniProt Q13618, N-terminal domain residues M1-L388, with the stabilising mutations I342R and L346D; The methods say in general that the eluted His-tagged proteins were cleaved with TEV protease; also called Cullin3; Cul3 NTD; source: E. coli BL21(DE3)R3-pRARE2, purified (nickel-sepharose, TEV cleavage, SEC)

[2] = biological target: T2, human Cul3 N-terminal domain (NTD, residues M1-L388) with the engineered mutations I342R and L346D (human, UniProt Q13618 1-388, I342R | L346D); assay: ITC; KCTD5 titrated into Cul3 NTD; 25°C; 50 mM HEPES pH 7.5, 150 mM NaCl, 1 mM TCEP, 5% glycerol; single-binding site model; settings: both partners purified
T2 construct: Cullin-3, human, UniProt Q13618, N-terminal domain residues M1-L388, with I342R and L346D introduced to stabilize the isolated Cullin-repeat domain; only the vector pNIC-CTHF is named, the tag is inferred from it; The general methods say that eluted proteins were cleaved with TEV protease; also called Cullin3; Cul3 NTD; source: E. coli BL21(DE3)R3-pRARE2, purified (nickel-sepharose, SEC)

[3] = biological target: the molecule itself; assay: SEC-MALS; BTB domains alone, injected at 50 µM; Shodex KW-803; 50 mM HEPES pH 7.5, 150 mM NaCl, 1 mM TCEP
[4] = biological target: T1, human Cul3 N-terminal domain (NTD, …); assay: ITC; KCTD protein titrated into Cul3 in the cell; 15°C; 50 mM HEPES pH 7.5, 150 mM NaCl, 1 mM TCEP, 5% glycerol; single-binding site model; settings: both partners purified
[5] = biological target: T2, human Cul3 N-terminal domain (NTD, …); assay: SAXS; KCTD-Cul3 complexes co-purified over S200, ~10% more Cul3 added, 10 mg/ml injected onto Shodex KW404 at 20°C; 50 mM HEPES pH 7.5, 150 mM NaCl, 1 mM TCEP, 5% glycerol; curves compared with a 5 : 5 model; settings: both partners purified
[6] = biological target: the molecule itself; assay: as above
[7] = biological target: the molecule itself; assay: crystal structure; BTB domains alone, sitting-drop vapour diffusion at 20 and 4°C, data at 100 K
[8] = biological target: T2, human Cul3 N-terminal domain (NTD, …); assay: ITC; KCTD protein titrated into Cul3 NTD; 15°C; 50 mM HEPES pH 7.5, 150 mM NaCl, 1 mM TCEP, 5% glycerol; single-binding site model; settings: both partners purified
[9] = biological target: T2, human Cul3 N-terminal domain (NTD, …); assay: SEC; KCTD protein alone and mixed with Cul3 NTD at a molar ratio of 1 : 1; UV 280 nm traces; injected at 50 µM; 50 mM HEPES pH 7.5, 150 mM NaCl, 1 mM TCEP; settings: both partners purified

B2: human KCTD5 BTB + CTD multi-domain construct (residues G40-M234) (domain or fragment, UniProt Q9NXV2 40-234, looked up)
chain: GSVSKWVRLNVGGTYFLTTRQTLCRDPKSFLYRLCQADPDLDSDKDETGAYLIDRDPTYFGPVLNYLRHGKLVINKDLAEEGVLEEAEFYNITSLIKLVKDKIRERDSKTSQVPVKHVYRVLQCQEEELTQMVSTMSDGWKFEQLVSIGSSYNYGNEDQAEFLCVVSKELHNTPYGTASEPSEKAKILQERGSRM
notes: KCTD5, human, UniProt Q9NXV2, BTB + CTD residues G40-M234; cleaved with TEV protease by the general methods; also called multi-domain KCTD5; source: E. coli BL21(DE3)R3-pRARE2, purified (nickel-sepharose, TEV cleavage, SEC); not shown: His6, N-terminal, cleaved
Kd [2]: 0.001 µM

B3: KCTD5 BTB domain (residues G40-R145) (domain or fragment)
chain: not shown
notes: Pentamer by SEC-MALS; TEV cleavage stated in general in the methods; source: E. coli BL21(DE3)R3-pRARE2, purified (nickel-sepharose, TEV cleavage, SEC); not shown: His6, N-terminal, cleaved
Ka [1]: 1.8e+07 M⁻¹ | stoichiometry N [1]: 0.81

B4: human KCTD5 BTB domain (residues G40-R145) (domain or fragment)
chain: not shown
notes: KCTD5, human, UniProt Q9NXV2, BTB domain residues G40-R145; cleaved with TEV protease by the general methods; source: E. coli BL21(DE3)R3-pRARE2, purified (nickel-sepharose, TEV cleavage, SEC); not shown: His6, N-terminal, cleaved
stoichiometry N [3]: 5 | Kd [2]: 0.055 µM

B8: human SHKBP1 BTB domain (residues G18-S120) (domain or fragment, UniProt Q8TBC3 18-120, looked up)
chain: GEVIHLNVGGKRFSTSRQTLTWIPDSFFSSLLSGRISTLKDETGAIFIDRDPTVFAPILNFLRTKELDPRGVHGSSLLHEAQFYGLTPLVRRLQLREELDRSS
notes: cleaved with TEV protease by the general methods; source: E. coli BL21(DE3)R3-pRARE2, purified (nickel-sepharose, TEV cleavage, SEC); not shown: His6, N-terminal, cleaved
Kd [8]: 0.087 µM | stoichiometry N [9]: 1 KCTD : Cul3 (5 : 5)

B9: human KCTD16 BTB domain (residues G16-E133) (domain or fragment, UniProt Q68DU8 16-133, looked up)
chain: GSAVPNSFPEVVELNVGGQVYFTRHSTLISIPHSLLWKMFSPKRDTANDLAKDSKGRFFIDRDGFLFRYILDYLRDRQVVLPDHFPEKGRLKREAEYFQLPDLVKLLTPDEIKQSPDE
notes: KCTD16, human, UniProt Q68DU8, BTB domain residues G16-E133; cleaved with TEV protease by the general methods; source: E. coli BL21(DE3)R3-pRARE2, purified (nickel-sepharose, TEV cleavage, SEC); not shown: His6, N-terminal, cleaved
stoichiometry N [3]: 5

B10: human KCTD10 BTB domain (residues G26-E135) with F61L (domain or fragment, UniProt Q9H3F6 26-135, looked up)
chain: GTSPSSKYVKLNVGGALYYTTMQTLTKQDTMLKAMLSGRMEVLTDSEGWILIDRCGKHFGTILNYLRDGAVPLPESRREIEELLAEAKYYLVQGLVEECQAALQNKDTYE
notes: KCTD10, human, UniProt Q9H3F6, BTB domain residues G26-E135; cleaved with TEV protease by the general methods; source: E. coli BL21(DE3)R3-pRARE2, purified (nickel-sepharose, TEV cleavage, SEC); not shown: His6, N-terminal, cleaved
stoichiometry N [7]: 4

The next lines start with results.

Ka [1]: 7.95e+08 M⁻¹ | stoichiometry N [1]: 0.94
B1: KCTD5 BTB + CTD multi-domain construct (residues G40-M234) (domain or fragment, human, UniProt Q9NXV2 40-234, looked up)
chain: B2 chain
notes: TEV cleavage stated in general in the methods; source: E. coli BL21(DE3)R3-pRARE2, purified (nickel-sepharose, TEV cleavage, SEC); not shown: His6, N-terminal, cleaved

Ka [4]: 1.01e+07 M⁻¹ | stoichiometry N [4]: 0.87
B5: KCTD13 BTB domain (residues G27-L144) (domain or fragment, human, UniProt Q8WZ19 27-144, looked up)
chain: GPAAYGLKPLTPNSKYVKLNVGGSLHYTTLRTLTGQDTMLKAMFSGRVEVLTDAGGWVLIDRSGRHFGTILNYLRDGSVPLPESTRELGELLGEARYYLVQGLIEDCQLALQQKRETL
notes: TEV cleavage stated in general in the methods; also called BACURD1; source: E. coli BL21(DE3)R3-pRARE2, purified (nickel-sepharose, TEV cleavage, SEC); not shown: His6, N-terminal, cleaved

stoichiometry N [5]: 1 KCTD : Cul3 (5 : 5) | Kd [8]: 0.1 µM
B6: human KCTD13 BTB domain (residues G27-L144) (domain or fragment, UniProt Q8WZ19 27-144, looked up)
chain: B5 chain
notes: KCTD13, human, UniProt Q8WZ19, BTB domain residues G27-L144; cleaved with TEV protease by the general methods; also called BACURD1; source: E. coli BL21(DE3)R3-pRARE2, purified (nickel-sepharose, TEV cleavage, SEC); not shown: His6, N-terminal, cleaved
stoichiometry N [6]: 5 | stoichiometry N [7]: 4

Ka [4]: 1.15e+07 M⁻¹ | stoichiometry N [4]: 0.92
B7: SHKBP1 BTB domain (residues G18-S120) (domain or fragment, human, UniProt Q8TBC3 18-120, looked up)
chain: B8 chain
notes: as for B1
